Assay results published in PMC11405016.

Target: Prominin 1 (Prom1) W795R, human S1 isoform, C-terminally Strep-tagged (human)
Assay: co-IP; EVs from co-transfected Expi293 cells, purified and solubilised with 1% DDM (25 mM HEPES-NaOH pH 7.8, 150 mM NaCl, 5 mM CaCl2); Prom1-Strep captured on StrepTactinXT 4Flow resin, 1 hr at 4°C; co-purified mNeonGreen or mScarlet fluorescence on the beads measured by montaged epifluorescence imaging, normalised to mTagBFP2-Strep on the resin

Prominin 1 (Prom1) W795R, human S1 isoform, C-terminally Strep-tagged (natural protein)
co-purified mScarlet fluorescence relative to WT Prom1 (% of WT Prom1): 60
